Source: US20260266833A1
Blank lines part the entries; values can stand above or below the substance they belong to.

Legend:
H3K9me3 peptide = test: fluorescence polarization, FITC-peptide 0.5 nM
[1] = target: H3K27me3-marked histone H3 in chromatin of mouse embryonic stem cells (mouse); test: ChIP-seq of the EGFP control in mESCs, correlation with antibody ChIP-seq of the mark, counts at 1-kb intervals
H3K4me3 (mouse) [2] = test: as above
[3] = target: H3K9me3-marked histone H3 in chromatin of mouse embryonic stem cells (mouse); test: as above
[4] = target: H3K27me3-marked histone H3 in chromatin of mouse embryonic stem cells (mouse); test: ChIP-seq of the EGFP control in mESCs, correlation with antibody ChIP-seq of the mark, 1-kb bins on chromosome 19
H3K4me3 (mouse) [5] = test: as above
[6] = target: H3K9me3-marked histone H3 in chromatin of mouse embryonic stem cells (mouse); test: as above

Cbx3.wt chromodomain (tags removed), Q13185 23-81, sequence (Q13185 23-81 limits assumed): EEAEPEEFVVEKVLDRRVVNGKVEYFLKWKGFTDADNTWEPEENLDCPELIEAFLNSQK
Cbx1.wt chromodomain (tags removed), P83916 17-79, sequence (P83916 17-79 limits assumed): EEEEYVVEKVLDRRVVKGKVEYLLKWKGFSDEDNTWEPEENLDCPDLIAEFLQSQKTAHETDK
Cbx5.wt chromodomain (tags removed), P45973 17-78, sequence (P45973 17-78 limits assumed): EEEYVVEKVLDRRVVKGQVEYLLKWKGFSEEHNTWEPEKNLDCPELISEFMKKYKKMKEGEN

Kd (H3K9me3 peptide): 500 nM
Substance: Cbx1.wt chromodomain (tags removed), P83916 17-79

Kd (H3K9me3 peptide): 2000 nM
Substance: Cbx3.wt chromodomain (tags removed), Q13185 23-81

Kd (H3K9me3 peptide): 5000 nM
Substance: Cbx5.wt chromodomain (tags removed), P45973 17-78

Pearson correlation [1]: 0.2 | Pearson correlation (H3K4me3 (mouse) [2]): 0.14 | Pearson correlation [3]: 0.32 | Pearson correlation [4]: -0.1 | Pearson correlation (H3K4me3 (mouse) [5]): 0.2 | Pearson correlation [6]: -0.3
Substance: EGFP
